Paper PMC7418559 (2020)

Target: CK2β 1-193 (Homo sapiens, UniProt P67870)
Test: microscale thermophoresis

CK2β 1-193, sequence (P67870 1-193): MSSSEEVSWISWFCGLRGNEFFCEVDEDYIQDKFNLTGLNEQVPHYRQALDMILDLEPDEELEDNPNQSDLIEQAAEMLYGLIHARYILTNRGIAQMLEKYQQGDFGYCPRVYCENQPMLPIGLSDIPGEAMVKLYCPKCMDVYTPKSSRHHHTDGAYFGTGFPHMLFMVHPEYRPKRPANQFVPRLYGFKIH

Kd: 12 nM
B1: CK2α 1-335 (protein)
chain: MSGPVPSRARVYTDVNTHRPREYWDYESHVVEWGNQDDYQLVRKLGRGKYSEVFEAINITNNEKVVVKILKPVKKKKIKREIKILENLRGGPNIITLADIVKDPVSRTPALVFEHVNNTDFKQLYQTLTDYDIRFYMYEILKALDYCHSMGIMHRDVKPHNVMIDHEHRKLRLIDWGLAEFYHPGQEYNVRVASRYFKGPELLVDYQMYDYSLDMWSLGCMLASMIFRKEPFFHGHDNYDQLVRIAKVLGTEDLYDYIDKYNIELDPRFNDILGRHSRKRWERFVHSENQHLVSPEALDFLDKLLRYDHQSRLTAREAMEHPYFYTVVKDQARMG
modifications: CK2β fluorescently labelled (RED-NHS)
